Measurements reported in patent publication US20160024208A1 (Regeneron, published 2016).
Positions count from the first letter of the chain named. Ends that are not written are not given here. * marks the point of attachment. Biotin = O=C1N[C@H]2[C@H](CS[C@H]2CCCCC(=O)*)N1

Key:
[1] = molecular target: T1, full-length human Nav1.7 fused at its N-terminus to GFP, expressed in HEK293 cells (human, UniProt Q15858 1-1988); assay: cell-based or functional assay
[2] = molecular target: T2, N-Term Biotin-Nav1.7 (3-3) peptide, human (same sequence of EC3-3 for mulatta) (human (same sequence of EC3-3 for …, not fully specified; N-terminal biotin attached via a G4S linker); assay: ELISA on coated peptide, antibody 1 ug/ml, OD450 grade; Monkey column
T2 construct: ELISA peptide
T2 peptide: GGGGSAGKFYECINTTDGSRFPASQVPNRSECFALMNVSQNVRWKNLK
Method: (§1) Anti-Naᵥ 1.7 antibodies were tested for their ability to bind to the Naᵥ 1.7 peptides. The various peptides were coated overnight onto 96-well Nunc Immunosorp plates at a concentration of 4 μg/mL in PBS, followed by blocking for 1 hour in a suitable blocking agent. For biotinylated peptides, avidin was first coated on Nunc Immunosorp plates at 2 μg/mL in PBS overnight, followed by blocking as described, and the plate was then coated with biotinylated peptides at a concentration of 0.4 μg/mL and incubated for 1 hour at room temperature. Purified anti-Naᵥ 1.7 antibodies were diluted to a final concentration of 0.1 μg/mL and 1.0 μg/mL and added to the wells of the coated microtiter plates followed by incubation for 1 hour at room temperature. Bound antibodies were detected with horseradish peroxidase (HRP) conjugated anti-mouse or anti-human IgG (Jackson Immuno Research Lab, West Grove, Pa.) depending on the antibody species and developed by colorimetric response using tetramethylbenzidine (TMB) substrate (BD Biosciences). Absorbance was read at OD₄₅₀ on a plate reader for 0.1 second.
(§2) Values in Table 11 represent absolute binding ranges (at OD450) to plate-coated peptides for antibodies added at 1 μg/ml as follows: OD450<0.2: −; 0.2<OD450<1: +; 1<OD450<2: ++; 2<OD450<4: +++; NT: Not Tested.

[3] = molecular target: T2, N-Term Biotin-Nav1.7 (3-3) peptide, …; assay: ELISA on coated peptide, antibody 1 ug/ml, OD450 grade; Human
Method: as §1, §2

[4] = molecular target: T3, Native Nav1.7 (3-3) peptide, rat (rat); assay: ELISA on coated peptide
T3 construct: ELISA peptide
T3 peptide: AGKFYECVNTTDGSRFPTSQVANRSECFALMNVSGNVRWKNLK
Method: as §1, §2

[5] = molecular target: T4, C-term Biotin Nav1.7 (3-1) peptide, human (human, not fully specified; C-terminal biotin attached via a G4S linker); assay: SPR, captured biotin-peptide, antibody analyte
T4 construct: Synthetic peptide; also called Human Nav1.7 3-1 C-term biotin
T4 peptide: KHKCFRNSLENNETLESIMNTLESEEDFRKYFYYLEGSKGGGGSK

[6] = molecular target: T5, N-term Biotin Nav1.7 (Paddle) peptide, human (human, not fully specified); assay: ELISA on coated peptide, antibody 1 ug/ml, OD450 grade
T5 construct: ELISA peptide
T5 peptide: Biotin-GGGGSTEFVNLGNVSALRT
Procedure, shortened: (§3)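 Peptides coated at 4 μg/mL in PBS, or biotinylated peptides captured at 0.4 μg/mL on avidin (2 μg/mL). Antibodies at 0.1 and 1.0 μg/mL, 1 h at room temperature, detected with HRP anti-mouse or anti-human IgG and TMB at OD450. Scores at 1 μg/ml: <0.2 −; 0.2–1 +; 1–2 ++; 2–4 +++.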

[7] = molecular target: T6, N-Term Biotin Nav1.7 (Paddle) peptide, mulatta (mulatta (monkey), not fully specified); assay: as above
T6 construct: ELISA peptide
T6 peptide: Biotin-GGGGSTEFVDLGNVSALRT
Procedure, shortened: as §3

[8] = molecular target: T7, Native Nav1.7 (Paddle) peptide, human (human); assay: SPR, captured antibody, peptide analyte
T7 construct: Synthetic peptide, unbiotinylated; also called Human Nav1.7 paddle native
T7 peptide: TEFVNLGNVSALRT
Procedure, shortened: (§4)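 Biacore SPR: antibody captured via Fc on anti-Fc surface, Nav1.7 loop peptides injected as analyte at several concentrations. Double-referenced sensorgrams globally fitted to a 1:1 model; KD = kd/ka, t1/2 = ln2/kd.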

[9] = molecular target: T1, full-length human Nav1.7 fused at its …; assay: flow cytometry; % stained hNav1.7-GFP-HEK293 minus parental HEK293
Procedure, shortened: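 Antibody (1-13 nM) incubated 20 min on ice with stably transfected hNav1.7-GFP-HEK293 or parental HEK293 cells in PBS/5% FBS, then 1.7 nM Cy5- or APC-labelled anti-Fc secondary for 20 min on ice. Flow cytometry of live-gated cells; specific binding = % stained transfected minus % stained parental.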

[10] = molecular target: T8, N-Term Biotin Nav1.7 (3-1) peptide, mulatta (mulatta (monkey), not fully specified; N-terminal biotin attached via a G4S linker); assay: ELISA on coated peptide, antibody 1 ug/ml, OD450 grade
T8 construct: Synthetic peptide; also called Mulatta Nav1.7 3-1 N-term biotin; monkey
T8 peptide: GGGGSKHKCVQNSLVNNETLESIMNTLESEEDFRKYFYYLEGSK
Procedure, shortened: as §3

[11] = molecular target: T9, N-Term Biotin-Nav1.7 (3-1) peptide, human (human, not fully specified; N-terminal biotin attached via a G4S linker); assay: as above
T9 construct: ELISA peptide
T9 peptide: T8 peptide with V10F, Q11R, V15E
Procedure, shortened: as §3

[12] = molecular target: T10, Native Nav1.7 (3-1) peptide, rat (rat); assay: as above
T10 construct: Synthetic peptide; also called Rat Nav1.7 3-1 native
T10 peptide: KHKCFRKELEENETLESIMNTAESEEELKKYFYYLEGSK
Procedure, shortened: as §3

[13] = molecular target: T11, Native Nav1.7 (3-1) peptide, human (human); assay: SPR, captured antibody, peptide analyte; IC = binding data could not be fit
T11 construct: Synthetic peptide (Celtek), unbiotinylated; also called Human Nav1.7 3-1 native; Nav1.7 3-1 native peptide
T11 peptide: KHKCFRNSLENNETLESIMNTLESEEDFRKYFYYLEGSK
Method: The binding affinities of anti-Naᵥ 1.7 antibodies to Naᵥ 1.7 loop peptides were determined by Biacore. For monovalent kinetic experiments, antibodies were captured through the Fc region via a goat anti-Fc-coupled biosensor surface, and the peptides (as analyte) were injected over this captured antibody surface. For bivalent (avidity-driven) kinetic experiments, biotinylated peptides corresponding to the Naᵥ 1.7 3-1, 3-3, or paddle loop sequences were captured on a NeutrAvidin sensor surface, and anti-Naᵥ 1.7 antibodies (as analyte) were injected over this surface. Following the capture step, each analyte was individually injected at several concentrations over its respective capture surface, and changes in bound surface units (RU) were monitored. The dissociation rate is independent of the concentration of analyte used in the experiment, and the dissociation rate constant (kd) was determined from the change in antibody-bound analyte RU over time. The Biacore kinetic data were obtained using a double referencing procedure. […] The KD was calculated as the dissociation rate constant divided by the association rate constant (KD=kd/kₐ). The dissociative half-life (t_{1/2}) was calculated from the dissociation rate constant (t_{1/2}=In2/kd).

[14] = molecular target: T11, Native Nav1.7 (3-1) peptide, human; assay: Biacore (second token of ELISA/Biacore summary)
[15] = molecular target: T8, N-Term Biotin Nav1.7 (3-1) peptide, …; assay: SPR, captured antibody, peptide analyte
Procedure, shortened: as §4

[16] = molecular target: T11, Native Nav1.7 (3-1) peptide, human; assay: SPR, captured antibody, peptide analyte
Procedure, shortened: as §4

[17] = molecular target: T8, N-Term Biotin Nav1.7 (3-1) peptide, …; assay: ELISA on coated peptide
Method: as §1, §2

[18] = molecular target: T3, Native Nav1.7 (3-3) peptide, rat; assay: ELISA on coated peptide, antibody 1 ug/ml, OD450 grade
Procedure, shortened: as §3

[19] = molecular target: T12, N-term Biotin Nav1.7 (3-3) peptide, mouse (mouse, N-terminal biotin attached via a G4S linker); assay: ELISA on coated peptide
T12 construct: ELISA peptide
T12 peptide: T3 peptide with P17S, T18V
Method: as §1, §2

B1: H4H471B (antibody, V domains shown)
VH: EVQLVESGGGLVKPGGSLRLSCAASGVTFSDYYMTWIRQAPGKGLEWVSYISTDGRTIYYADSVKGRFTISRDNAKNSLYLQMNNLRAEDTAVYYCARGVDSDDYEDFYSYYDMDVWGQGTTVTVSS
VL: DIQMTQSPSSLSASVGDRVTITCRASQGISNYLAWFQQKPGKAPKSLIYAASSLQGGVPSRFSGSGSGTDFTLTISSLQPEDFATYYCQQYNSYPLTFGGGTKVEIKR
For B1, the “Current blocking (Average % inhibition), IonWorks Quattro, 223 nM antibody” value (“Current blocking (Average % inhibition)” for short) [1] was 57%, the OD450 [2] was 2 to 4 od and the OD450 [3] was 2 to 4 od. It also gave an OD450 [4] of under 0.2 od.

B2: H1M683N (antibody, V domains shown)
VH: QVQLVESGGGVVQPGRSLSLSCAASGFTFSNYGMHWVRQAPGKGLEWVAAISYDGNTKYYVDSVKGRFTISRDNSKNTLYLQMNSLRGEDMAVYYCVGARPGYDHYGMDVWGQGTTVTVSS
VL: DIQLTQSPSFLSTSVGDRVTITCWASQGISSYLAWYQQKPGKAPNLLIYTASTLQSGVPSRFSGSGSGTEFTLTISSLQPEDFATYYCQQLNSYPYTFGQGTKLEIK
notes: Loop specificity 2-1 (paddle)
For B2, the binding result [5] was “no binding”, the OD450 [6] was 1 to 2 od and the OD450 [7] was 0.2 to 1 od. For the same binder, the Kd [8] was 9.4 nM and the t1/2 [8] was 18 min.

B3: H1H1003B (antibody, V domains shown)
VH: QVQLVESGGGLVQPGGSLRLSCAASGFTLSSYAMSWVRQAPGKGLEWVSTISGSGIIYYTDSVKGRFTISRDSSKNTLYLQMNSLRVEDTAVYYCAKDRGAAAGAFDYWGQGTLVTVSS
VL: AIQLTQSPDSLAVSLGERATIKCKSSQSVLYSSNNKNYLAWYQQKPGQPPNLLIYWASTRESGVPDRFSGSGSGTDFTLTISSLQAEDVAVYYCQQYFSFGQGTKVDIKR
With B3 the “Current blocking (Average % inhibition)” value [1] was 32.5%, the “% Binding Nav1.7” value [9] was 1.3% and the Kd [5] was 2.64 nM. It also gave a t1/2 [5] of 27.8 min, an OD450 [10] of 2 to 4 od and an OD450 [11] of 2 to 4 od. For the same binder, the OD450 [12] was 2 to 4 od and the binding result [13] was “binds”.

B4: H4H439B (antibody, V domains shown)
VH: QVQLQQWGAGLLKPSETLSLTCAVYGGSFSGHYWSWIRQPPGKGLEWIGEINHRGSTNYNPSLKSRATISVDTSKNQFSLKLSSVTAADTAVYYCAREGSLAARLWFFDLWGRDTLVTVSS
VL: DIQMTQSPSSLSASVGDRGTITCRASQDIRTYLNWYQQKPGKAPKLLIYAASSLQSGVPSRFSGSGSGTDFTLTISSLQPEDFATYYCQQSYGTPYTFGQGTKVEIKR
In the case of B4, the “Current blocking (Average % inhibition)” value [1] is reported as 33.6%, the binding result [14] is reported as “binds” and the OD450 [10] is reported as 2 to 4 od. The OD450 [11] was 2 to 4 od and the OD450 [12] was 1 to 2 od.

B5: H4H448B (antibody, V domains shown)
VH: EVQLVQSGGGLVQPGRSLRLSCAASGFTFDDYAMHWVRQAPGKGLEWVSGISWNSGSIGYADSVKGRFTISRDNAKNSLYLQMNSLRAEDTALYYCAKDIEYYDILTGYYSYYIMDVWGQGTTVTVSS
VL: B4 VL with Q3R, D28N, R30N, T31S, Q38L, Y49F, G93S, T94S, Y96F
For B5, the OD450 [11] was 2 to 4 od, the binding result [15] was “no binding” and the Kd [16] was 21.9 nM. It also gave a t1/2 [16] of 1.8 min and an OD450 [17] of under 0.2 od.

B6: H4H468B (antibody, V domains shown)
VH: EVQLVQSGGGVVQPGRSLRLSCTASGFTFSVYGIHWVRQAPGKGLEWVAVIWYDGSNKYYTDSVKGRFTISRDNSKNTLYLQMNSLRAEDTALYYCAREGDLSSSSGSGGYHYVVDVWGQGTMVTVSS
VL: DIQMTQSPSSLSASVGDRVTITCRASQDIRNDLGWYQQKPGNAPKLLIYSTSSLQSGVPSRFSGSGSGTDFTLTISSLQPEDFATYYCLQDYNYPLTFGGGTKVEIKR
B6 showed an OD450 [2] of 1 to 2 od, an OD450 [3] of 1 to 2 od and an OD450 [18] of 2 to 4 od. For the same binder, the OD450 [19] was under 0.2 od.
